According to patent US20140057284A1, “PHOTOLUMINESCENT MOLECULAR COMPLEX AND METHOD FOR DETERMINING OF THE CONCENTRATION OF SAID MOLECULAR COMPLEX” (priority 2011, published 2014):

Key:
ASK1 = ASK1 (Homo sapiens, UniProt Q99683); assay: biochemical; conditions: read-out: Percentages of residual activities of the kinase reaction
Protocol: (§1) Selectivity testing (Table 2) was performed on the commercial basis at the Division of Signal Transduction Therapy, University of Dundee. ATP concentrations that were used in testing were close to the Km value of the kinase.

Aurora B = Aurora B (Homo sapiens, UniProt Q96GD4); assay: biochemical; conditions: read-out: Percentages of residual activities of the kinase reaction
Protocol: as §1

CAMKKb = CAMKKb (Homo sapiens, UniProt Q96RR4); assay: biochemical; conditions: read-out: Percentages of residual activities of the kinase reaction
Protocol: as §1

CLK2 = CLK2 (Homo sapiens, UniProt P49760); assay: biochemical; conditions: read-out: Percentages of residual activities of the kinase reaction
Protocol: as §1

DAPK1 = DAPK1 (Homo sapiens, UniProt P53355); assay: biochemical; conditions: read-out: Percentages of residual activities of the kinase reaction
Protocol: as §1

EF2K = EF2K (Homo sapiens, UniProt O00418); assay: biochemical; conditions: read-out: Percentages of residual activities of the kinase reaction
Protocol: as §1

EPH-A2 = EPH-A2 (Homo sapiens, UniProt P29317); assay: biochemical; conditions: read-out: Percentages of residual activities of the kinase reaction
Protocol: as §1

EPH-B1 = EPH-B1 (Homo sapiens, UniProt P54762); assay: biochemical; conditions: read-out: Percentages of residual activities of the kinase reaction
Protocol: as §1

EPH-B2 = EPH-B2 (Homo sapiens, UniProt P29323); assay: biochemical; conditions: read-out: Percentages of residual activities of the kinase reaction
Protocol: as §1

EPH-B4 = EPH-B4 (Homo sapiens, UniProt P54760); assay: biochemical; conditions: read-out: Percentages of residual activities of the kinase reaction
Protocol: as §1

FGF-R1 = FGF-R1 (Homo sapiens, UniProt P11362); assay: biochemical; conditions: read-out: Percentages of residual activities of the kinase reaction
Protocol: as §1

HER4 = HER4 (Homo sapiens, UniProt Q15303); assay: biochemical; conditions: read-out: Percentages of residual activities of the kinase reaction
Protocol: as §1

IR = IR (Homo sapiens, UniProt P06213); assay: biochemical; conditions: read-out: Percentages of residual activities of the kinase reaction
Protocol: as §1

IRR = IRR (Homo sapiens, UniProt P14616); assay: biochemical; conditions: read-out: Percentages of residual activities of the kinase reaction
Protocol: as §1

LKB1 = LKB1 (Homo sapiens, UniProt Q15831); assay: biochemical; conditions: read-out: Percentages of residual activities of the kinase reaction
Protocol: as §1

MARK3 = MARK3 (Homo sapiens, UniProt P27448); assay: biochemical; conditions: read-out: Percentages of residual activities of the kinase reaction
Protocol: as §1

MINK1 = MINK1 (Homo sapiens, UniProt Q8N4C8); assay: biochemical; conditions: read-out: Percentages of residual activities of the kinase reaction
Protocol: as §1

MKK2 = MKK2 (Homo sapiens, UniProt P36507); assay: biochemical; conditions: read-out: Percentages of residual activities of the kinase reaction
Protocol: as §1

MKK6 = MKK6 (Homo sapiens, UniProt P52564); assay: biochemical; conditions: read-out: Percentages of residual activities of the kinase reaction
Protocol: as §1

MST4 = MST4 (Homo sapiens, UniProt Q9P289); assay: biochemical; conditions: read-out: Percentages of residual activities of the kinase reaction
Protocol: as §1

NUAK1 = NUAK1 (Homo sapiens, UniProt O60285); assay: biochemical; conditions: read-out: Percentages of residual activities of the kinase reaction
Protocol: as §1

PIM2 = PIM2 (Homo sapiens, UniProt Q9P1W9); assay: biochemical; conditions: read-out: Percentages of residual activities of the kinase reaction
Protocol: as §1

PIM3 = PIM3 (Homo sapiens, UniProt Q86V86); assay: biochemical; conditions: read-out: Percentages of residual activities of the kinase reaction
Protocol: as §1

PKBb = PKBb (Homo sapiens, UniProt P31751); assay: biochemical; conditions: read-out: Percentages of residual activities of the kinase reaction
Protocol: as §1

PRAK = PRAK (Homo sapiens, UniProt Q8IW41); assay: biochemical; conditions: read-out: Percentages of residual activities of the kinase reaction
Protocol: as §1

SGK1 = SGK1 (Homo sapiens, UniProt O00141); assay: biochemical; conditions: read-out: Percentages of residual activities of the kinase reaction
Protocol: as §1

TBK1 = TBK1 (Homo sapiens, UniProt Q9UHD2); assay: biochemical; conditions: read-out: Percentages of residual activities of the kinase reaction
Protocol: as §1

YES1 = YES1 (Homo sapiens, UniProt P07947); assay: biochemical; conditions: read-out: Percentages of residual activities of the kinase reaction
Protocol: as §1

p38a MAPK = p38a MAPK (Homo sapiens, UniProt Q16539); assay: biochemical; conditions: read-out: Percentages of residual activities of the kinase reaction
Protocol: as §1

p38b MAPK = p38b MAPK (Homo sapiens, UniProt Q15759); assay: biochemical; conditions: read-out: Percentages of residual activities of the kinase reaction
Protocol: as §1

AMPK = assay: PK selectivity profiling, residual kinase activity; type: biochemical; conditions: 1 μM ARC-669, ATP close to Km
CK1 = assay: PK selectivity profiling, residual kinase activity; type: biochemical; conditions: 1 μM ARC-669, ATP close to Km
CK2 = assay: PK selectivity profiling, residual kinase activity; type: biochemical; conditions: 1 μM ARC-669, ATP close to Km
SmMLCK = molecular target: T1, SmMLCK (Homo sapiens, UniProt Q15746); assay: PK selectivity profiling, residual kinase activity; type: biochemical; conditions: 1 μM ARC-669, ATP close to Km, read-out: Percentages of residual activities of the kinase reaction
T1 construct: Division of Signal Transduction Therapy, University of Dundee (contract testing)

PHK = assay: PK selectivity profiling, residual kinase activity; type: biochemical; conditions: 1 μM ARC-669, ATP close to Km
[1] = molecular target: catalytic subunit of cAMP-dependent protein kinase (PKAc) (Homo sapiens, UniProt P17612); assay: Binding affinity to PKAc; conditions: towards PKAc

EPH-B1, sequence (P54762 18-984, species assumed): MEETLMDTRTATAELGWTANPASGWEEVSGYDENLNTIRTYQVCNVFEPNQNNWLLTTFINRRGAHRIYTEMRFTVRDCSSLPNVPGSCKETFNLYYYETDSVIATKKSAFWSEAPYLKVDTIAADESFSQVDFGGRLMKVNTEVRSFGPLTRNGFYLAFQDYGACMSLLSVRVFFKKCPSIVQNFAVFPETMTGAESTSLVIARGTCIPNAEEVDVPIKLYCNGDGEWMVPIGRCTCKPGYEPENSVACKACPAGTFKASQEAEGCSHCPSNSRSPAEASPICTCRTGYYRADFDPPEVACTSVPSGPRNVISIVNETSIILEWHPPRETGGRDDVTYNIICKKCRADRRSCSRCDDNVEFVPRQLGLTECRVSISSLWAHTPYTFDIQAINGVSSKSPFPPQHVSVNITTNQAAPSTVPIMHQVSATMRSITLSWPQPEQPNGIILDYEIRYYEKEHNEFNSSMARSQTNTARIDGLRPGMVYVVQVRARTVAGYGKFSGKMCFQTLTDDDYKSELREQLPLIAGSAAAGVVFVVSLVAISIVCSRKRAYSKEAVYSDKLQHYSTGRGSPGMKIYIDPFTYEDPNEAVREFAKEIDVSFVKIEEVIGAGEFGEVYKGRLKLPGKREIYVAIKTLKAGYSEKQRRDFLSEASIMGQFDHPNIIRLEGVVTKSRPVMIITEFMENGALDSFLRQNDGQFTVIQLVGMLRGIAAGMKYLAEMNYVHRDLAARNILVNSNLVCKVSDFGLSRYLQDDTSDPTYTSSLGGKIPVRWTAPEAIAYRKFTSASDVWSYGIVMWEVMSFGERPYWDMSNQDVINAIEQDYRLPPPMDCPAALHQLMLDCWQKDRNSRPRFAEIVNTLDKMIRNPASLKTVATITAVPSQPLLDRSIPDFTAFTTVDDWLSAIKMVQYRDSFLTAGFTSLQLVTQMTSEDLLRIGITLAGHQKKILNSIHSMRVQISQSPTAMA
CLK2, sequence (P49760 whole entry, species assumed): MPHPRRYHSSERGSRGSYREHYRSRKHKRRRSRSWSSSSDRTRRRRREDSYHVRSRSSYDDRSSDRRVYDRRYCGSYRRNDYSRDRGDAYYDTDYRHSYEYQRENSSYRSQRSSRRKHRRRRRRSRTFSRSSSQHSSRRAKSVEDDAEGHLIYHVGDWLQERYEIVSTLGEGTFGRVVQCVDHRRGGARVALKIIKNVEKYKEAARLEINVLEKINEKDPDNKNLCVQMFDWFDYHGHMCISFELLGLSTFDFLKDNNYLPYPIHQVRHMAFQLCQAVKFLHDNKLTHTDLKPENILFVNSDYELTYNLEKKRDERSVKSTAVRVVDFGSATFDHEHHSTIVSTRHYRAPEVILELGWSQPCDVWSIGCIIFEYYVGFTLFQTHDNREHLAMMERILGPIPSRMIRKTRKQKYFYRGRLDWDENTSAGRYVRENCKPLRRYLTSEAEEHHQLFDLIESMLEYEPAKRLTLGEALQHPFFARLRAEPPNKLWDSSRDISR
DAPK1, sequence (P53355 whole entry, species assumed): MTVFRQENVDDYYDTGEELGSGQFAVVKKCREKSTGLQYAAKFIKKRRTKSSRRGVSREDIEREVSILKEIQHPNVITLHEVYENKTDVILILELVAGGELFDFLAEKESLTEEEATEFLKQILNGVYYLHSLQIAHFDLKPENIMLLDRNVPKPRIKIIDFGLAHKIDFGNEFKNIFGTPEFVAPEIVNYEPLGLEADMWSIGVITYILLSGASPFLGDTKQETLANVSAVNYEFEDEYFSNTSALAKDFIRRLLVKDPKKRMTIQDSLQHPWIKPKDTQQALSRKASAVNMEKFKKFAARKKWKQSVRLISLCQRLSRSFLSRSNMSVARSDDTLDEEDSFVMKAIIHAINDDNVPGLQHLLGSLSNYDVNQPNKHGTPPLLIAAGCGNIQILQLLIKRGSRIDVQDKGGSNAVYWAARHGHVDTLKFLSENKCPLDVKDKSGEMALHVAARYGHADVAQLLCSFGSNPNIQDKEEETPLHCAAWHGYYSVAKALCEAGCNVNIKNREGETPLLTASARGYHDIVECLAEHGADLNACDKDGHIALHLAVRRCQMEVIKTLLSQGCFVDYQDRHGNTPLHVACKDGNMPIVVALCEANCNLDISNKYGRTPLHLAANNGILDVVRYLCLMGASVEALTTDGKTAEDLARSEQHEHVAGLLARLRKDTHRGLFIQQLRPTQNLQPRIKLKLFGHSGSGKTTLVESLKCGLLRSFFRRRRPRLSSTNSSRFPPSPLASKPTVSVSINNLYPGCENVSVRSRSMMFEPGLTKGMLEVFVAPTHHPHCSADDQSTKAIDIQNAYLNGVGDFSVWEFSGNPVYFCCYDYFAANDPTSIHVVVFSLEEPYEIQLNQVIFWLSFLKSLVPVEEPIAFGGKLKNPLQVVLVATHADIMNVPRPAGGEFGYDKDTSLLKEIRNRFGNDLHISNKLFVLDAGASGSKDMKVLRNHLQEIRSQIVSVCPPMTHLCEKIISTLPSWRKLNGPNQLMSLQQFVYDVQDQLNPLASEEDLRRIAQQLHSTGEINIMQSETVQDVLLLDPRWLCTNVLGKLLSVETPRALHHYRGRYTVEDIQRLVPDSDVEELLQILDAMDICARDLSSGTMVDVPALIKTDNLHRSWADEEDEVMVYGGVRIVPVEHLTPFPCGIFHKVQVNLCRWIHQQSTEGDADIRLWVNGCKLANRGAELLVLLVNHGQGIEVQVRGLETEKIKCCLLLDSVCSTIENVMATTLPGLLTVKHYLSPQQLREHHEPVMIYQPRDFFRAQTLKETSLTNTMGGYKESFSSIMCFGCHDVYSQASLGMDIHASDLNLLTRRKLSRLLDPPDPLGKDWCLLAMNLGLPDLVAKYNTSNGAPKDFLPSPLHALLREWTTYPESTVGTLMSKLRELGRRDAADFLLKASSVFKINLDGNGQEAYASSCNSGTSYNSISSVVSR
IRR, sequence (P14616 27-1297, species assumed): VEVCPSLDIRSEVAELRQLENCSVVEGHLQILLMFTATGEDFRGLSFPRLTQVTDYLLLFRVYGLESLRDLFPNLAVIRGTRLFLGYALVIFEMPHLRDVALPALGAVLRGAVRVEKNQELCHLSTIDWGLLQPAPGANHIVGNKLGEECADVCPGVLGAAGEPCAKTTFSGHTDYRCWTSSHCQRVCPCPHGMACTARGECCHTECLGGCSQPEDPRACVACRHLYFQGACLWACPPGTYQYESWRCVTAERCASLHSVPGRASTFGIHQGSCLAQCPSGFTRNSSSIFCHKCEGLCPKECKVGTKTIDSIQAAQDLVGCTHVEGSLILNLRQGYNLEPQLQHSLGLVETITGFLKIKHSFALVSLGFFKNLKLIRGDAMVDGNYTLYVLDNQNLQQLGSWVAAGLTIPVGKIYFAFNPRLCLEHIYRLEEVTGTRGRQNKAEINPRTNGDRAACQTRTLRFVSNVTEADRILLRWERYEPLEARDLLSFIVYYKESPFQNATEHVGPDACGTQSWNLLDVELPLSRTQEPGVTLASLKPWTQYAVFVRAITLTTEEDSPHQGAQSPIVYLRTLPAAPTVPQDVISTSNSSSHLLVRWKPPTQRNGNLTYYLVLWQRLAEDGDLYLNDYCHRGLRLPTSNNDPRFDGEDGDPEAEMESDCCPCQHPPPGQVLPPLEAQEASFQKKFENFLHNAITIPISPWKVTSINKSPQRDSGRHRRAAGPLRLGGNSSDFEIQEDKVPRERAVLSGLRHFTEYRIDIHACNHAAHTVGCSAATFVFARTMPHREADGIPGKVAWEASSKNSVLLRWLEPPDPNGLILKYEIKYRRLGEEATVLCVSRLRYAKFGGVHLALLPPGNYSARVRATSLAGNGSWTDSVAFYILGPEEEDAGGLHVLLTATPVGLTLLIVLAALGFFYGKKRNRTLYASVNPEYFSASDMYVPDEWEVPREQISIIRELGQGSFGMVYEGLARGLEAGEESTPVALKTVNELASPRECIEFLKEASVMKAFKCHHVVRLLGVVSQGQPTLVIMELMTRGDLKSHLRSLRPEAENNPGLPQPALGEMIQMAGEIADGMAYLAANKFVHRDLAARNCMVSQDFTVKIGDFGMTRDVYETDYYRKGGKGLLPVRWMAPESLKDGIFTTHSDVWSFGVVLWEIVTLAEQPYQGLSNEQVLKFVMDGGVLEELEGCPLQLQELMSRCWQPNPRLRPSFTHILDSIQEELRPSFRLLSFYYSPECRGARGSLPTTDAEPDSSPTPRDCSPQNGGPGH
EF2K, sequence (O00418 whole entry): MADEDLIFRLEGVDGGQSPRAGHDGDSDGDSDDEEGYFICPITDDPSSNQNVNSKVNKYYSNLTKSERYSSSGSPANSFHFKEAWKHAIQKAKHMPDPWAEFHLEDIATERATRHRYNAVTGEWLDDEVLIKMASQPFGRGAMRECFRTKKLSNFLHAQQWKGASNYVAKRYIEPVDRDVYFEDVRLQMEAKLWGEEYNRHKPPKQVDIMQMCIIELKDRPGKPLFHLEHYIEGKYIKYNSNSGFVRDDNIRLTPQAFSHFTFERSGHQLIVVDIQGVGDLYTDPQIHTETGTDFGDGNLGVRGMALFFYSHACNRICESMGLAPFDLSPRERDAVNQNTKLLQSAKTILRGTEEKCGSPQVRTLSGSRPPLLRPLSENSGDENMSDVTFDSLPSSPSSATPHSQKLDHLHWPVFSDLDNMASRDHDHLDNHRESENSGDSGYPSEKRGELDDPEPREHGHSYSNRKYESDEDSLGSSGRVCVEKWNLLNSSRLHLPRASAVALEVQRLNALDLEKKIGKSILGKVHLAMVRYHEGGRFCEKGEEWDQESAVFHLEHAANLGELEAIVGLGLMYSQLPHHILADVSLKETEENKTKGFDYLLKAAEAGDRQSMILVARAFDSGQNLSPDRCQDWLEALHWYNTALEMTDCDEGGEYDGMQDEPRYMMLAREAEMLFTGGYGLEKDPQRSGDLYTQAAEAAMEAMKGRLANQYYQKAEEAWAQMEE

CN(C)c1ccc2c(c1)Oc1cc(N(C)C)ccc1C21OC(=O)c2cc(C(=O)NCCCC[C@@H](NC(=O)[C@@H](CCCNC(=N)N)NC(=O)[C@@H](CCCNC(=N)N)NC(=O)[C@@H](CCCNC(=N)N)NC(=O)[C@@H](CCCNC(=N)N)NC(=O)[C@@H](CCCNC(=N)N)NC(=O)[C@@H](CCCNC(=N)N)NC(=O)CCCCCNC(=O)[C@@H](CCCNC(=N)N)NC(=O)CCCCCNC(=O)c3ccc(-c4ccnc(N)n4)s3)C(N)=O)ccc21 [ARC-669]
remaining activity at 1 µM (ASK1): 74% | remaining activity at 1 µM (Aurora B): 81% | remaining activity at 1 µM (CAMKKb): 41% | remaining activity at 1 µM (CLK2): 1% | remaining activity at 1 µM (DAPK1): 20% | remaining activity at 1 µM (EF2K): 43% | remaining activity at 1 µM (EPH-A2): 98% | remaining activity at 1 µM (EPH-B1): 90% | remaining activity at 1 µM (EPH-B2): 96% | remaining activity at 1 µM (EPH-B4): 98% | remaining activity at 1 µM (FGF-R1): 54% | remaining activity at 1 µM (HER4): 82% | remaining activity at 1 µM (IR): 52% | remaining activity at 1 µM (IRR): 32% | remaining activity at 1 µM (LKB1): 101% | remaining activity at 1 µM (MARK3): 20% | remaining activity at 1 µM (MINK1): 51% | remaining activity at 1 µM (MKK2): 68% | remaining activity at 1 µM (MKK6): 107% | remaining activity at 1 µM (MST4): 45% | remaining activity at 1 µM (NUAK1): 12% | remaining activity at 1 µM (PIM2): 15% | remaining activity at 1 µM (PIM3): 7% | remaining activity at 1 µM (PKBb): 4% | remaining activity at 1 µM (PRAK): 63% | remaining activity at 1 µM (SGK1): 8% | remaining activity at 1 µM (TBK1): 27% | remaining activity at 1 µM (YES1): 64% | remaining activity at 1 µM (p38a MAPK): 55% | remaining activity at 1 µM (p38b MAPK): 71% | Percentages of residual activities of the kinase reaction (AMPK): 36% | Percentages of residual activities of the kinase reaction (CK1): 72% | Percentages of residual activities of the kinase reaction (CK2): 7% | remaining activity at 1 µM (SmMLCK): 46% | Percentages of residual activities of the kinase reaction (PHK): 32% | Kd [1]: 0.1 nM
